# Source: US20240092913A1 (HANALL BIOPHARMA, published 2024)
# Tests used:
# [1] = target: T1, human FcRn on human FcRn-expressing stable HEK293 cells (human, UniProt P55899 24-365; P61769 21-119); experiment: FACS on human FcRn-expressing stable HEK293 cells, pH 7.4, 0.11-250 nM antibody, 4 parameter logistic regression of MFI
# T1 construct: also called hFcRn-expressing HEK293 cells; human FcRn-overexpressing HEK293 cells
# Experimental: The plate was mounted in a rotator at 4° C. and rotated at an angle of 15° and 10 rpm for 90 minutes. […] The FACS measurement was performed under the following conditions: FS 108 volts, SS 426 volts, FL1 324 volts, FL2 300 volts. These cells were analyzed by FACS using BD FACSDiva™ v6.1.3 software (BD Bioscience).
# water-soluble hFcRn [2] = target: T2, water-soluble hFcRn (human, UniProt P55899 24-297; P61769 21-119, limits assumed); experiment: SPR (Proteon XPR36, GLC chip), shFcRn immobilised, antibody as analyte, pH 6.0, 1:1 Langmuir, mean of six runs
# T2 construct: also called shFcRn; human FcRn
# Experimental: (§1) In kinetic analysis, a 1:1 Langmuir binding model was used, the analysis was repeated six times at each of pH 6.0 and pH 7.4, and the mean KD value was calculated. […], the chip was activated under the conditions of EDAC/NHS 0.5×, 30 μL/min and 300 sec. For immobilization, shFcRn was diluted in acetate buffer (pH 5.5) to concentrations of 2 μg/mL and 250 μL, and the dilution was allowed to flow on the chip at a rate of 30 μL/min. When an immobilization level of 200-300 RU was reached, the reaction was stopped. Then, deactivation was performed using ethanolamine at a rate of 30 μL/min for 300 sec. […] Sample dilution was performed using 1× PBST (pH 7.4) or 1× PBST (pH 6.0) at each pH. For sample analysis, association was performed at 50 μL/min for 200 sec, and the dissociation step was performed at 50 μL/min for 600 sec, after which regeneration was performed using glycine buffer (pH 2.5) at 100 μL/min for 18 sec. The kinetic analysis of each sample was repeated six times, and then the mean antigen binding affinity (KD) was measured.
# water-soluble hFcRn [3] = target: T2, water-soluble hFcRn; experiment: SPR (Proteon XPR36, GLC chip), shFcRn immobilised, antibody as analyte, pH 7.4, 1:1 Langmuir, mean of six runs
# Experimental: as §1
# [4] = target: T1, human FcRn on human FcRn-expressing …; experiment: FACS competition on human FcRn-overexpressing HEK293 cells, pH 6.0, blocking of Alexa488-hIgG1, antibody 0.01-200 nM, 4-parameter logistic regression
# Experimental: Each antibody sample was diluted to 400 nM, and then diluted by 4-fold serial dilution in a 96-well v-bottom plate. 50 μL of the sample diluted to a final concentration of 200 nM to 0.01 nM was added to each well. […] Finally, 40 μL of cells diluted to a cell concentration of 2.5×10⁶ cells/mL were added to each well and suspended. The plate was mounted in a rotator at 4° C. and rotated at an angle of 15° and 10 rpm for 90 minutes. After completion of the reaction, the plate was taken out of the rotator, and centrifuged at 2000 rpm for 10 minutes to remove the supernatant. 100 μL of reaction buffer was added to each well to dissolve the cell pellets, and the plate was transferred into a blue test tube. Then, 200 μL of reaction buffer was added to each well, and measurement was performed in FACS. The FACS measurement was performed under the following conditions: FS 108 volts, SS 426 volts, FL1 324 volts, FL2 300 volts. These cells were analyzed by FACS using BD FACSDiva™ v6.1.3 software (BD Bioscience). The results were expressed as mean fluorescence intensity (MFI). The MFI of the test group was processed after subtracting the measured MFI value of the cells alone (background signal).
# T2 sequence (P55899 24-297 limits assumed, chain 1 of 2): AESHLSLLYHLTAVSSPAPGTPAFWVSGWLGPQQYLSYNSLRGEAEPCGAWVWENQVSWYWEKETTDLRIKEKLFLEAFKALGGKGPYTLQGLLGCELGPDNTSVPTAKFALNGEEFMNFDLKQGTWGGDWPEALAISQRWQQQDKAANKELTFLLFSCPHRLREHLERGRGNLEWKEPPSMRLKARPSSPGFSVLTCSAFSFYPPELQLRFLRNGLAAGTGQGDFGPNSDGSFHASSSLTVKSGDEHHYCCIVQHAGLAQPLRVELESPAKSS
# T2 sequence (P61769 21-119 limits assumed, chain 2 of 2): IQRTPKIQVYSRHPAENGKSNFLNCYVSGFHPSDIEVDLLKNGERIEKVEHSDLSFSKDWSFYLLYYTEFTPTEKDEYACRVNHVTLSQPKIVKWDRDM
# T1 sequence (P55899 24-365 limits assumed, chain 1 of 2): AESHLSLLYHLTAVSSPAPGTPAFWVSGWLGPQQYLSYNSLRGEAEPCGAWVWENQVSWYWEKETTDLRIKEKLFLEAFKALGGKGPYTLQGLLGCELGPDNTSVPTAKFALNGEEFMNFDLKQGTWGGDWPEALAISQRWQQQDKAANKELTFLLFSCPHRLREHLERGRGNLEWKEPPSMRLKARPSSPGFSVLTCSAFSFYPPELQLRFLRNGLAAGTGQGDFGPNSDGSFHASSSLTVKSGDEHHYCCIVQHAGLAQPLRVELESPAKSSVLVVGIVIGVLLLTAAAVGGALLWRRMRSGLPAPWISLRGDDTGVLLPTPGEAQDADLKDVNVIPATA
# T1 sequence (P61769 21-119 limits assumed, chain 2 of 2): as the sequence (P61769 21-119 limits assumed, chain 2 of 2) above
Binder,EC50 [1] [nM],Kd (water-soluble hFcRn [2]) [nM],koff (water-soluble hFcRn [2]) [s⁻¹],kon (water-soluble hFcRn [2]) [M⁻¹ s⁻¹],Kd (water-soluble hFcRn [3]) [nM],koff (water-soluble hFcRn [3]) [s⁻¹],kon (water-soluble hFcRn [3]) [M⁻¹ s⁻¹],IC50 [4] [nM]
"HL161A antibody (antibody, human IgG1, V domains shown) VH: EVQLLESGGGLVQPGGSLRLSCAASEFTFGSCVMTWVRQAPGKGLEWVSVISGSGGSTYYADSVKGRFTISRDNSKNTLYLQMNSLRAEDTAVYYCAKTPWWLRSPFFDYWGQGTLVTVSS VL: SYVLTQPPSVSVAPGQTARITCGGNNIGSTSVHWYQQKPGQAPVLVVHDDSDRPSGIPERFSGSNSGNTATLTISRVEAGDEADYYCQVRDSSSDHVIFGGGTKLTVLGQPKAAPSVTL",2.46,0.18,0.000326,1.81e+06,0.247,0.000327,1.32e+06,0.92
"HL161B antibody (antibody, V domains shown, the VL entry runs a few residues into the constant region) VH: QLLLQESGPGLVKPSETLSLTCTVSGGSLSSSFSYWVWIRQPPGKGLEWIGTIYYSGNTYYNPSLKSRLTISVDTSKNHFSLNLSSVTAADTAVYYCARRAGILTGYLDSWGQGTLVTVSS VL: SYVLTQSPSVSVAPGQTARITCGGNNIGSKSVHWYQQKPGQAPVLVVYDDSDRPSGIPERFSASNSGNTATLTISRVEAGDEADYYCQVWDSSSDHVVFGGGTKLTVLGQPKAAPSVTL",1.2,0.807,0.000735,912000,1.76,0.00125,710000,2.24
"HL161C antibody (antibody, human IgG1, V domains shown) VH: QVQLVQSGAEVKKPGASVKVSCKASGYTFTGCYMHWVRQAPGQGLEWMGRINPNSGGTNYAQKFQGRVTMTRDTSISTAYMDLSRLRSDDTAVYYCARDYSGWSFDYWGQGTLVTVSS VL: DIQMTQSPSSLSASVGDRVTITCRASQGISNYLAWFQQKPGKAPKSLIYAASSLQSGVPSKFSGSGSGTDFTLTISSLQSEDFATYYCQQYDSYPPTFGGGTKVEIKRTVAAPSVFI",,0.191,0.000332,1.74e+06,0.232,0.000316,1.36e+06,
"HL161D antibody (antibody, human IgG1, V domains shown, the VL entry runs a few residues into the constant region) VH: QLQLQESGPGLVKPSETLSLTCTVSGGSISSSSYYWGWIRQPPGKGLEWIGNIYYSGSTYYNPSLMSRVTISVDTSKNQFSLKLSSVTAADTAVYYCARQLSYNWNDRLFDYWGQGTLVTVSS VL: SYELTQPLSVSVALGQTARITCGGNNIGSKNVHWYQQKPGQAPVLVIYRDSNRPSGIPERFSGSNSGNTATLTISRAQAGDEADYYCQVWDSSTVVFGGGTKLTVLGQPKAAPSVTL",,1.43,0.00138,970000,1.78,0.00124,699000,
